Results: patent US20240190915A1 (KLINIKUM RECHTS DER ISAR DER TECHNISCHEN UNIVERSIT T M NCHEN, published 2024)
Residue numbers refer to the chain shown, from its start. Values belong to the binder of their own block, whether it stands above or below them.

Assays:
[1] = biological target: Polr2a (mouse, endogenous) (mouse, UniProt P08775 1-1970); test: co-IP, endogenous proteins, mouse pancreatic tissue
[2] = biological target: T1, AGR2 (human, endogenous in PDAC cells) (human, UniProt O95994 21-175, limits assumed); test: co-IP competition in Capan2 cells (FIG. 5B)
T1 construct: Endogenous protein co-immunoprecipitated from Capan2 cell lysate
T1 sequence (looked up): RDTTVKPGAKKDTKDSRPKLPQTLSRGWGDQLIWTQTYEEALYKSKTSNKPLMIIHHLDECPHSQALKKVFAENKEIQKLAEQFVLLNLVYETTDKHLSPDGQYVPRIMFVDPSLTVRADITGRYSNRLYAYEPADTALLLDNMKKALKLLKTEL

[3] = biological target: T1, AGR2 (human, endogenous in PDAC cells); test: co-IP competition in PDAC cells, dose-dependent inhibition of POLR2A-AGR2 binding

binding result [1]: binds
B1: Agr2 (mouse, endogenous) (other)
chain: T1 sequence (looked up) with R1K, P7S, T13P, K44R, K50R, I54V, N74H, M109V, A135S, L141Y
notes: Endogenous protein co-immunoprecipitated from mouse pancreatic tissue lysate

binding result [2]: binds
B2: hexapeptide NTAIYY (SEQ ID NO:2) (peptide)
peptide: NTAIYY
notes: also called bioactive hexapeptide

binding result [3]: binds
B3: hexapeptide PTTIYY (SEQ ID NO:4) (peptide)
peptide: PTTIYY
notes: Synthetic, previously described peptide used as positive control; liposome-encapsulated form; also called bioactive hexapeptide; positive control
